Assay [1] relates to Swiss 3T3 cells. The assay is described as follows: MEKKCOOH-induced cell death after nuclear microinjection of expression plasmids. The class given is cell-based. How it is done: (§1) Swiss 3T3 and REF52 cells were plated on acid-washed glass cover slips in Dulbecco's Modified Eagle's Medium (DMEM) and 10% bovine calf serum (BCS) or newborn calf serum (NCS). Cells were placed in DMEM/0.1% calf serum for overnight incubation prior to microinjection and used for injection at 50-70% confluence. Injections were performed with an Eppendorf automated microinjection system with needles pulled from glass capillaries on a vertical pipette puller (Kopf, Tujunga, Calif.). Cells were injected with pCMVβ-gal in the presence or absence of pCMV5MEKKCOOH or pCMV5BxBRaf at 20-100 ng/μl for each expression plasmid in 100 mM KC1, 5 mM NaPO4, pH 7.3. Following injection cells were placed in 1% NCS for 12-18 hr (Swiss 3T3) or 42 hr (REF52) prior to fixation with paraformaldehyde and staining. Similar results were obtained when cells were placed in 10% NCS after microinjection. Propidium iodide ([…]) was used to stain DNA. X-Gal reactions were performed for six hr.
Swiss 3T3 cells were microinjected with 100 ng/μl pCMVβ-gal and 20 ng/μl pCMV5MEKKCOOH. To label free DNA ends fixed and rehydrated cells were incubated with terminal deoxytransferase (TDT) and 10 nM biotin-dUTP following the manufacturer's instructions (Boehringer-Mannheim). Cells were stained with FITC-streptavidin to label DNA fragments. β-gal was detected using rabbit anti-p-gal antibody (Cappel Labs) and a rhodamine-labeled goat anti-rabbit antibody (Cappel Labs).
Seventeen hours after injection cells were fixed and stained for, β-galactosidase activity with X-Gal. Injected cells attached to the coverslip were scored as positive for cell death when they were highly condensed, small round cells.

Assay [2] concerns Gal4/Jun. The assay can be described thus: Gal4-TK-luciferase transactivation analysis, Gal4/Jun. The class given is cell-based. The settings on record: IPTG-induced stable expression in Swiss 3T3 cells. From the text: (§2) Swiss 3T3 cells were transfected using calcium phosphate or lipofectamine with the reporter plasmid Gal4-TK-luciferase, which contains four Gal4 binding sites (Sadowski, I., et al. (1988). Nature 335, 563-564). adjacent to a minimal thymidine kinase (TK) promoter that controls expression of luciferase, in the presence or absence of activator plasmids encoding Gal4(1-147)/Myc(7-101) (Gupta et al. (1993) Proc. Natl. Acad. Sci. USA 90:3216-3220), Gal4(1-47)/Elk-1(83-428) (Marais, et al. (1993) Cell 73:381-393) or Gal4(1-147)/c-Jun(1-233) Hibi et al. (1993) Genes & Development 7:2135-2148). Transfections included pCMV5 without a cDNA insert (basal control), pCMV5MEKKCOOH and in some experiments pCMV5BxBRaf. Cells were incubated for 24-48 hr after transfection, lysed and assayed for luciferase activity. Values were normalized to equivalent μg protein for all experiments.

Assay [3] has as its system REF52 cells. The assay can be described thus: Cell morphology after microinjection of expression plasmids. The class given is cell-based. As to conditions: microinjected REF52 cells. The method, then: as §1
Assay [4] has as its system Gal4/Myc. The assay is described as follows: Gal4-TK-luciferase transactivation analysis, Gal4/Myc. The class given is cell-based. As to conditions: IPTG-induced stable expression in Swiss 3T3 cells.
Excerpt: as §2

The subject of assay [5] is p38/Hog1. The assay can be described thus: p38/Hog1 activity in Swiss 3T3 clones with inducible MEKKCOOH
The class given is cell-based. The settings on record: 17 hours IPTG induction.

Assay [6] concerns GST-Ras^V12. The assay is described as follows: Binding of COS cell-expressed MEKK1 proteins to GST-Ras^V12 agarose. As to conditions: COS cell lysates, immunoblot. From the text:
COS cells were transiently transfected by the DEAE-dextran protocol as generally described in Example 3. Cos cells were transfected with: (1) p-MEKK1 containing a nucleic acid molecule encoding MEKK1 as described in Lange-Carter et al. (Science 260:315-319, […]); (2) p-MEKKNH2 containing a nucleic acid molecule that encodes a 858 base pair Pvull(682)-Ncol(1541) restriction digest fragment of the amino terminus of MEKK1 ligated into pCMV5; (3) p-MEKKCOOH containing a nucleic acid molecule that encodes a 1435 base pair Ncol(1541)-Sspl(2976) restriction digest fragment that includes the entire kinase domain of MEKK1 ligated into pCMV5; (4) pCMV5 without insert; or (5) p-C4Raf containing a nucleic acid molecule that encodes the amino terminus of Raf-1 ligated into pCMV5. COS cells expressing the various MEKK1 proteins were […] COS cells expressing the various MEKK1 proteins were lysed in EB (1% Triton X-100, 10 mM Tris HCl [pH 7.4], 5 mM EDTA, 50 mM NaCl, 50 mM NaF, 0.1% bovine serum albumin, 0.2 U/ml aprotinin, 1 mM phenylmethylsulfonyl fluoride and 2 mM Na3 VO4). The lysates were separated into two equal parts for separate binding reactions. Half of the lysate was incubated with GST agarose (1.5 μg) while half of the lysate was incubated with GST-Ras^V12 agarose (1.5 μg) (purchased from UBI) for 1 hr at 4° C. The GST-Ras^V12 was preincubated at 30° C. for 30 min with 1 mM nucleotide (GDP or GTPγS). The nucleotide binding reaction was stopped by adding MgCl2 to a final concentration of 20 mM. After the 1 hr binding reaction the agarose beads were pelleted at 2000 rpm for 2 min and washed 3 times with PBS+1.0% Triton X-100. The washed agarose beads were boiled in Laemmli SDS sample buffer and the proteins resolved by SDS polyacrylamide gel electrophoresis. Proteins were transferred onto nitrocellulose for immunoblotting with antibodies specific for an NH2 terminal fusion protein (described in Example 1) or a COOH terminal peptide (described in Example 1).

Assay [7] concerns ERK. The assay is described as follows: ERK activity in Swiss 3T3 clones with inducible MEKKCOOH
The class given is cell-based. As to conditions: 17 hours IPTG induction.

B1: MEKKCOOH: a truncated activated form of MEKK1 including the entire kinase domain (protein)
chain: MAMSASQDALPIVPQLQVENGEDIIIIQQDTPETLPGHTKAKQPYREDAEWLKGQQIGLGAFSSCYQAQDVGTGTLMAVKQVTYVRNTSSEQEEVVEALREEIRMMGHLNHPNIIRMLGATCEKSNYNLFIEWMAGGSVAHLLSKYGAFKESVVINYTEQLLRGLSYLHENQIIHRDVKGANLLIDSTGQRLRIADFGAAARLASKGTGAGEFQGQLLGTIAFMAPEVLRGQQYGRSCDVWSVGCAIIEMACAKPPWNAEKHSNHLALIFKIASATTAPSIPSHLSPGLRDVAVRCLELQPQDRPPSRELLKHPVFRTTW
B1: the “Condensed Cells (percent of cells injected)” value in assay [1] (100 ng/μl plasmids, seventeen hours after injection, X-Gal) is “Approximately 84%”. The “cells with cytoplasmic and nuclear morphology characteristic of apoptosis” value in assay [1] (18 hrs postinjection) is reported as “Greater than 80%”. Moreover, in assay [1] (microinjected Swiss 3T3 cells), the “DNA fragmentation (TDT, biotin-dUTP, streptavidin-FITC)” value is on record as “significant DNA fragmentation” and the “induction of cell death on expression (in words)” value is listed as “resulted in significant cell death”. Further, the Gal4/Jun activity entry in assay [2] is reported as “little effect on Gal4/Jun activity”. The “cytoplasmic and nuclear morphology” value in assay [3] is “dramatic cytoplasmic shrinkage and nuclear condensation”. In addition, the “transactivation function of c-Myc” value in assay [4] is “markedly activated”. Moreover, the p38/Hog1 activity result in assay [5] is listed as “did not activate either ERK or p38/Hog1 activity”. Further, the “binding to GST-Ras^V12 (in words)” value in assay [6] is given as “bound to GST-Ras^V12 in a GTP dependent manner”. Moreover, in assay [7], the ERK activity result is given as “did not activate either ERK or p38/Hog1 activity”.

Source of the values: patent publication US20080201790A1, “Method and product for regulating cell responsiveness to external signals” (priority 1993, published 2008).
